Consider seven molecules from publication doi:10.1101/070185 (bioRxiv, 2016).

One data set concerns the target T1, ETS1Δ335 (UniProt P14921 335-441).
T1 sequence: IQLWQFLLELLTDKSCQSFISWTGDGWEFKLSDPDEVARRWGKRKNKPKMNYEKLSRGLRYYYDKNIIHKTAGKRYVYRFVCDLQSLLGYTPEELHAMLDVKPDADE
Nature of the data set: EMSA. (A gel shift assay detects complexes by their altered migration in electrophoresis.)

In a further data set the target is T2, ETS1Δ335 R394A/Y395A (UniProt P14921 335-441, R394A;Y395A).
T2 sequence: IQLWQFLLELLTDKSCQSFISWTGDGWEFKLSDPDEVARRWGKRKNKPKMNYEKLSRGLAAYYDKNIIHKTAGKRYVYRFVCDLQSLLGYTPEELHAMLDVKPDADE
Kind of data set: EMSA.

The data set “cross-linking” concerns the molecule itself. Nature of the data set: cross-linking.
The next data set addresses T3, ETS1Δ335 L337A (UniProt P14921 335-441, L337A).
T3 sequence: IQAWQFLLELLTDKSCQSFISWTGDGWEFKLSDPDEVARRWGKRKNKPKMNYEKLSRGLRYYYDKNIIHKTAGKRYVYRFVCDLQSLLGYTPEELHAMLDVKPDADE
Kind of data set: EMSA.

B1: MMP3 M2 (dsDNA)
DNA 1: ACAGGAAGCACTTTTTGG
DNA 2: CCAAAAAGTGCTTCCTGT
The term Kd denotes the free concentration of one partner at which half of the binding sites on the other are occupied at equilibrium, for simple one-to-one binding. The low end stands for a tighter complex, the high end for a looser complex. For B1, the dissociation constant Kd is 6.37 ± 0.92 nM in the data set with ETS1Δ335 and 7.33 ± 0.55 nM in the data set with ETS1Δ335 R394A/Y395A.

B2: MMP3 M1 (dsDNA)
DNA 1: ACAAAAAGCACTTCCTGG
DNA 2: CCAGGAAGTGCTTTTTGT
In the case of B2, the dissociation constant (Kd) with ETS1Δ335 was found to be 13.5 ± 1.9 nM; with ETS1Δ335 R394A/Y395A, 105 ± 5.2 nM.

B3: ETS1Δ335 R378C (domain or fragment, UniProt P14921 335-441, looked up)
chain: IQLWQFLLELLTDKSCQSFISWTGDGWEFKLSDPDEVARRWGKCKNKPKMNYEKLSRGLRYYYDKNIIHKTAGKRYVYRFVCDLQSLLGYTPEELHAMLDVKPDADE
In general, stoichiometry N refers to the number of molecules, sites or subunits per partner or assembly. B3: in “cross-linking”, the “stoichiometry N” value worked out at 2.

B4: ETS1Δ335 R378C/R394A/Y395A (domain or fragment, UniProt P14921 335-441, looked up)
chain: IQLWQFLLELLTDKSCQSFISWTGDGWEFKLSDPDEVARRWGKCKNKPKMNYEKLSRGLAAYYDKNIIHKTAGKRYVYRFVCDLQSLLGYTPEELHAMLDVKPDADE
In the case of B4, the “stoichiometry N” value in “cross-linking” came out at 2.

B5: ETS1Δ335 L337A R378C (domain or fragment, UniProt P14921 335-441, looked up)
chain: IQAWQFLLELLTDKSCQSFISWTGDGWEFKLSDPDEVARRWGKCKNKPKMNYEKLSRGLRYYYDKNIIHKTAGKRYVYRFVCDLQSLLGYTPEELHAMLDVKPDADE
In the case of B5, in the data set “cross-linking”, the “stoichiometry N” value was found to be 2.

B6: MMP3 WT (dsDNA)
DNA 1: ACAGGAAGCACTTCCTGG
DNA 2: CCAGGAAGTGCTTCCTGT
For B6, the binding result with ETS1Δ335 L337A is reported as “no binding”. The Kd in the data set with ETS1Δ335 amounted to 1.2 ± 0.2 nM; with ETS1Δ335 R394A/Y395A it was 16.1 ± 1.3 nM.

B7: p53 (dsDNA)
DNA 1: TTAGGAAGGCTTTCCGTA
DNA 2: TACGGAAAGCCTTCCTAA
For B7, the binding result with ETS1Δ335 and with ETS1Δ335 R394A/Y395A was “no binding” each time.
